Results on 1 substance are retold here after paper PMC10685657.

The target of the test is HA-TRIP12. As to the kind of experiment: co-IP (IP-GFP, immunoblot for TRIP12; band intensity printed above lanes). The note with it: HEK293T cells, harvested for lysis 48 h after transfection; HA-TRIP12 co-transfected. (In general: In western blotting, separated proteins are transferred to a membrane and probed.)

On to “GFP-EZH2 wildtype (from UniProt Q15910) K634R”, for which the ratio to parent amounted to 0.16.
